Test results: paper PMC12707108, “CpoS-Inc interactions facilitate host cell modulation during Chlamydia trachomatis infection” (Infection and Immunity, 2025)
Several values for one entry are separate records, joined by “and”; a condition that tells them apart may be missing. Equal values may be shown once.

How the values were obtained:
[1] = target: MBP-InaC C-ter (Chlamydia trachomatis serovar L2 (LGV 434/Bu)); assay: SEC + other: mass photometry + native gel or EMSA; purified MBP-tagged proteins; Superdex 200 SEC, mass photometry of SEC fractions in DPBS, native PAGE
[2] = target: MBP-IPAM C-ter (Chlamydia trachomatis serovar L2 (LGV 434/Bu)); assay: as above
[3] = target: the molecule itself; assay: as above
[4] = target: the molecule itself; assay: not stated; CpoS C-ter in acidic and basic buffer conditions (Fig. S3C)
[5] = target: the molecule itself; assay: mass photometry; fractions of MBP-CpoS C-ter from Superdex 200 SEC (13 and 14 mL); 100 nM protein added to DPBS, room temperature

MBP-InaC C-ter (domain or fragment)
stoichiometry N [1]: 2 and 3

MBP-IPAM C-ter (domain or fragment)
stoichiometry N [2]: 2 and 3

B1: MBP-IncA C-ter (domain or fragment)
chain: QKTANLHLYQDLQREVGSLKEINFMLSVLQKEFLHLSKEFATTSKDLSAVSQDFYSCLQGFRDNYKGFESLLDEYKNSTEEMRKLFSQEIIADLKGSVASLREEIRFLTPLAEEVRRLAHNQESLTAAIEELKTIRDSLRDEIGQLSQLSKTLTSQIALQRKESSDLCSQIRETLSSPRKSASPSTKSS
stoichiometry N [3]: 4

B2: MBP-CpoS C-ter (domain or fragment)
chain: RARSRRVEIERQLEVVSMQIEELEEEYKALSEVYRANLEARRAVSKYCQELEEKILDLCKRHAATICSIEEDAKQEIRHQTERFKQRLQQNQNTCSQLTAELCKLRSENKALSERLQVQASRRKK
notes: also called MBP-tagged CpoS C-ter; MBP-tagged CpoS; source: E. coli BL21 (DE3), purified (amylose resin, Superdex 200)
stoichiometry N [4]: 2
stoichiometry N [5]: 4 and 8
